The data set in a line: Particle size, polydispersity and zeta-potential by dynamic light scattering. The data set is classed as physicochemical. As for the experimental part: Nanoparticle carrier particles were formed by the methods of the preceding Example, and characterized as follows. The particle size and the zeta-potential were measured using Zeta Plus zeta-potential analyzer (Brookhaven Instruments Ltd., New York, N.Y.), which employs the dynamic light scattering technique for particle size measurement. The particle size and zeta-potential measurements were made after 1:1000 dilution of particle stock in filtered deionized water. Further, the particles were visualized using a transmission electron microscope (TEM). The carbon-coated grids were floated on a suspension droplet of plain or functionalized nanoparticles on a flexible plastic film (Parafilm, Pechiney Plastic Packaging, Neenah, Wis.) to allow the adsorption of nanoparticles onto the grid. After drying the particles, uranyl acetate was added as a negative stain to the carbon grid and allowed to react with the particles. This procedure makes the particles electron dense, allowing their visualization using an electron microscope. The particles were photographed using EM410 Phillips electron microscope (Eindhoven, The Netherlands) set at 60 kV and a magnification of 153000×.
Characterization of particles: The particle size and the zeta-potential were measured using ZetaPlus® zeta-potential analyzer, Brookhaven Instruments Ltd. (New York, N.Y.), which employs the dynamic light scattering technique for particle size measurement. The particle size and zeta-potential measurements were carried out after 1:1000 dilution of particle stock in filtered deionized water before lyophilization in filtered deionized water. The effective diameter of conjugated nanoparticles was higher than that of unconjugated nanoparticles.
Particle Size Analysis: Particle size and zeta-potential of the nanoparticles before and after conjugation following lyophilization were measured in double distilled water (100 μl of particle/1 ml of water) using dynamic light scattering (DLS). After lyophilization the plasmid loaded particles were weighed (1 mg) into glass Kimble tubes. To each tube, 1 ml of double distilled water was added and vortexed at high speed (Vortex Genie, Scientific Industries, Bohemia, N.Y.) till the particles were resuspended. The particle size and zeta potential was determined using dynamic light scattering after dilution (1:10 in double distilled water) (Brookhaven Instruments Corp., Holtsville, N.Y.). Nanoparticle size after lyophilization was 210.4±0.68 nm and zeta potential was −32.85±0.87 mV. Nanoparticle size and zeta potential was measured after conjugation with deslorelin and transferrin. Similarly, the unconjugated nanoparticles were also treated under the same conditions as with the conjugated nanoparticles (the conjugation protocol as mentioned above).
Transport studies were conducted in bovine nasal tissue. Bovine nasal tissue was obtained from freshly slaughtered cattle, and different regions (MTA, MTP, ITP) were prepared as described in Example 13. Nanoparticles coupled to deslorelin or transferring via aldehyde sulfate moieties were prepared as described in Example 3. The nanoparticle size was measured using a Zeta Plus Analyzer (Brookhaven Instruments Limited, UK). Particle size was analyzed before and after ligand conjugation in deionized filtered water.

“Transferrin-AS: transferrin-aldehyde sulphate-conjugated polystyrene nanoparticles” gave a Zeta potential (Table 2, polystyrene nanoparticles) of −20.62 ± 0.82 mV and a Zeta potential (Table 6) of −20.62 ± 0.82 mV. Further, the “Measured Diameter” value (Table 2, polystyrene nanoparticles, 1:1000 dilution in filtered deionized water, includes hydrodynamic layer, n = 3) was 67.5 ± 1.0 nm. Moreover, the Effective diameter (Table 6, 1:1000 dilution in filtered deionized water) is reported as 67.5 ± 1.0 nm.

These data come from patent publication US8821943B2, “Methods and compositions for targeted delivery of therapeutic agents” (Board of Regents of the University of Nebraska, priority 2006, dated 2014).
